In publication PMC9512700, “Observation of conformational changes that underlie the catalytic cycle of Xrn2” (Nature Chemical Biology, 2022):

Columns and labels:
[1] = molecular target: T1, CtXrn2 (Xrn2 WT, residues 1-875) (Thermochaetoides thermophila, UniProt G0S058, A5F); assay: 1H-13C HMQC methyl-TROSY NMR; assay type: binding; conditions: 313 K; 5 mM MgCl2; 50 uM protein; 500 uM pAp
T1 construct: gene CTHT_0008830; Xrn core, residues 1-875, C-terminal tag LEHHHHHH kept, E. coli BL21(DE3) CodonPlus-RIL, 100 kDa, single chain; Ile-delta1/Met methyl-labelled for NMR
T1 sequence (G0S058 entry or part of it A5F): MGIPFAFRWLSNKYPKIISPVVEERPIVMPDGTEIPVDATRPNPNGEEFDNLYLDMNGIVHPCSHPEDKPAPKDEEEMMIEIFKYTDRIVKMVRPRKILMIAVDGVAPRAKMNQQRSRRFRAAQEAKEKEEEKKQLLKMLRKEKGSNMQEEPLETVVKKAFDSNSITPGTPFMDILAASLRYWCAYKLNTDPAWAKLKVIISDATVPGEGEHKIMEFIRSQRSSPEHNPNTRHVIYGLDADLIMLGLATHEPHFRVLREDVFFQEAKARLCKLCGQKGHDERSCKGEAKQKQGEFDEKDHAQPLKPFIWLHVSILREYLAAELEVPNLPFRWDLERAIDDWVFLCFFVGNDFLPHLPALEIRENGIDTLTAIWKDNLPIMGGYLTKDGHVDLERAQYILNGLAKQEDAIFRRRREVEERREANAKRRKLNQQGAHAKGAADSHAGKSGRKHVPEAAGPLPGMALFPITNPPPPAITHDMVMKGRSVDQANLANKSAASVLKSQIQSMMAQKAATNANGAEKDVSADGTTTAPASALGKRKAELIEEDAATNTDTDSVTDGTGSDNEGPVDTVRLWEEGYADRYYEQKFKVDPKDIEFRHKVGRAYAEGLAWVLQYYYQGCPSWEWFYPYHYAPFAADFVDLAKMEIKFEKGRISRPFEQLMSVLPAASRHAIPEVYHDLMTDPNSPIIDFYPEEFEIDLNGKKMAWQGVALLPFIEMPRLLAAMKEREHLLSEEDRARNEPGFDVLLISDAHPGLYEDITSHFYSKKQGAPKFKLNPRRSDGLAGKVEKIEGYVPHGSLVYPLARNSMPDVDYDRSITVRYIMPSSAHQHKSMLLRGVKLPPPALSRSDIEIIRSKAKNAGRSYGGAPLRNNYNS

[2] = molecular target: T2, CtXrn2 (Xrn2 WT, residues 1-875) (Thermochaetoides thermophila, UniProt G0S058); assay: 1H-13C HMQC methyl-TROSY NMR chemical shift perturbation; assay type: binding; conditions: 313 K; 5 mM MgCl2; 50 uM protein; 500 uM pAp; around active site
T2 construct: gene CTHT_0008830; Xrn core, residues 1-875, C-terminal tag LEHHHHHH kept, E. coli BL21(DE3) CodonPlus-RIL, 100 kDa, single chain; Ile-delta1/Met methyl-labelled for NMR
T2 sequence (G0S058 1-875): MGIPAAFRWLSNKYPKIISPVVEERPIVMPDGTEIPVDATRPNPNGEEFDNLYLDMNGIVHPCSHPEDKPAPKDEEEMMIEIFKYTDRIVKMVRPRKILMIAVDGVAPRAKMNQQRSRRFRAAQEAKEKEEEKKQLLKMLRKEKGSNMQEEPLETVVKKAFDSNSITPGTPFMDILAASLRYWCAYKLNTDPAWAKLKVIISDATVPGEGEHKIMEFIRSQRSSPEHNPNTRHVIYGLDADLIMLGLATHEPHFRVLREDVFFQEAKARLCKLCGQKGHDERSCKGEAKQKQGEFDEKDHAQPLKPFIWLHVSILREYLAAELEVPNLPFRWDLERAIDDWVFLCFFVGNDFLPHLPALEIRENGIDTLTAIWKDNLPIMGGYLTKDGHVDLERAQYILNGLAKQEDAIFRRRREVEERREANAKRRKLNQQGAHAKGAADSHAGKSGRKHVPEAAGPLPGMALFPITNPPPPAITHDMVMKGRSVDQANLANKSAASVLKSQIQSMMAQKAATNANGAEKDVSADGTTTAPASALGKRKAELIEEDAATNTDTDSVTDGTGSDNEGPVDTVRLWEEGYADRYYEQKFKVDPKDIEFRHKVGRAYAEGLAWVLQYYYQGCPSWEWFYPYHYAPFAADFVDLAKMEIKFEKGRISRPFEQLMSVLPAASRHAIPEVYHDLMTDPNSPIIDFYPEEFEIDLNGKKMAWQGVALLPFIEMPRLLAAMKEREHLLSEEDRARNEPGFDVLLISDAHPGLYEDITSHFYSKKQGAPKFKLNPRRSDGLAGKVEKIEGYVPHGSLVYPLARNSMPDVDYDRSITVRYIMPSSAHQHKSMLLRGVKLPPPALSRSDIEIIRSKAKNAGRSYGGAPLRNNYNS

CtXrn2 deltaZnF = molecular target: T3, CtXrn2 deltaZnF (Chaetomium thermophilum, UniProt G0S058 1-875, del263-300); assay: fluorescence anisotropy; no Mg2+, with Zn2+; Fluorescence anisotropy: 25 mM HEPES pH 7.3, 125 mM NaCl, 0.002% Triton, no Mg2+, with Zn2+, temperature not stated (room temperature used for dG); NMR: 25 mM H; conditions: protein: recombinant; label: fluorescein on 3' thiouridine (6-iodoacetamido-fluorescein); single strand
T3 sequence: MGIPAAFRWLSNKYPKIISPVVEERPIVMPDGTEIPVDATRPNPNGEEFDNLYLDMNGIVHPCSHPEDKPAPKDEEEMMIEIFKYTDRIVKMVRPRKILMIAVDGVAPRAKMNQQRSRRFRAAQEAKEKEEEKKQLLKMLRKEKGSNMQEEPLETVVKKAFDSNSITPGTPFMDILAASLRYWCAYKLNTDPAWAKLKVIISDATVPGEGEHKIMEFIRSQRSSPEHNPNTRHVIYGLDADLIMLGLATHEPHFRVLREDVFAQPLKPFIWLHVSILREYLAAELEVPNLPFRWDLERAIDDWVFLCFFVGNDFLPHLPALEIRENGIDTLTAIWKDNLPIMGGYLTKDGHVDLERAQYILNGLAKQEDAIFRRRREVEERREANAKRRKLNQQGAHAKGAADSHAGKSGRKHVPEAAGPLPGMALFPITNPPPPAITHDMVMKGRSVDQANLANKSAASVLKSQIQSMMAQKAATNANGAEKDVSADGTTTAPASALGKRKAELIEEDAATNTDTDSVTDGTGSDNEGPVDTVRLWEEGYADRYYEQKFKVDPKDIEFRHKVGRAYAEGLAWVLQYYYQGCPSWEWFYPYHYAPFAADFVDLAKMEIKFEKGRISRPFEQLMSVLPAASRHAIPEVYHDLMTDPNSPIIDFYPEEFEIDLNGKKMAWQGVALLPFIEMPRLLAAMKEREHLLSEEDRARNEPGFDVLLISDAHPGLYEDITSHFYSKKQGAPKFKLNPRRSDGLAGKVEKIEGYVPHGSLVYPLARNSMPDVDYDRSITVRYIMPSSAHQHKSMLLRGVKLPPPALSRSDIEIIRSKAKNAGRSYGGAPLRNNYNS

CtXrn2 1-875 (WT) [3] = molecular target: T4, CtXrn2 1-875 (WT) (Chaetomium thermophilum, UniProt G0S058 1-875); assay: as above; conditions: protein: recombinant; label: fluorescein on 3' thiouridine (6-iodoacetamido-fluorescein); single strand
T4 sequence: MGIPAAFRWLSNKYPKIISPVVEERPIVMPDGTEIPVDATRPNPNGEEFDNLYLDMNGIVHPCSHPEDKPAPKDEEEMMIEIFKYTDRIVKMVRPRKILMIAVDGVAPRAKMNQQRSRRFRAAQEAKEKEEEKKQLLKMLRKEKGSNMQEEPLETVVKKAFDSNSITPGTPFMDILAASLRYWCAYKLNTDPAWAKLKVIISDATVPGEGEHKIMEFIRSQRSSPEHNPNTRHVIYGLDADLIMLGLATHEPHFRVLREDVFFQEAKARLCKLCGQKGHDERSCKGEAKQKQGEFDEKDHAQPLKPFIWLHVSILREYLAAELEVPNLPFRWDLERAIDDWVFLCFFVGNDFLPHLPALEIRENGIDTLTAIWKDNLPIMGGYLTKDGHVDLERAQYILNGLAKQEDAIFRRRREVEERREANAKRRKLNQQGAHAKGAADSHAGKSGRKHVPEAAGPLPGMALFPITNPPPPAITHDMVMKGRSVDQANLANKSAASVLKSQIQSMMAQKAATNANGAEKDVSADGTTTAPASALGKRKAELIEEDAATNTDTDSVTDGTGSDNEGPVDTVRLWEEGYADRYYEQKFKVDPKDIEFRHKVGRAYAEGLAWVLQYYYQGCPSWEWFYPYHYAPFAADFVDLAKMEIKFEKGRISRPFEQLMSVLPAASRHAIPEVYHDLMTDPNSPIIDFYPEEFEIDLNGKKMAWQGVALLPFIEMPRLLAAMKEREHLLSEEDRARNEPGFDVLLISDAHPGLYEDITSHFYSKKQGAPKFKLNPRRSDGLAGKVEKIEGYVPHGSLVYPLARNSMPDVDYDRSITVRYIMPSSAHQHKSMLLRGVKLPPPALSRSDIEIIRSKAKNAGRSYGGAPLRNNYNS

CtXrn2 1-875 (WT) [4] = molecular target: T4, CtXrn2 1-875 (WT); assay: NMR (methyl-TROSY CSP); 5 mM Mg2+; RNA trimmed at 5' end; locked in pre-translocation state; Fluorescence anisotropy: 25 mM HEPES pH 7.3, 125 mM NaCl, 0.002% Triton, no Mg2+, with Zn2+, temperature not stated (room temperature used for dG); NMR: 25 mM H; conditions: protein: recombinant; pseudoknot with unstructured 5' end
CtXrn2 1-875 (WT) [5] = molecular target: T4, CtXrn2 1-875 (WT); assay: NMR (methyl-TROSY CSP of M704); no Mg2+; active state not formed; Fluorescence anisotropy: 25 mM HEPES pH 7.3, 125 mM NaCl, 0.002% Triton, no Mg2+, with Zn2+, temperature not stated (room temperature used for dG); NMR: 25 mM H; conditions: protein: recombinant; single strand

With `Nc1ncnc2c1ncn2[C@@H]1O[C@H](COP(=O)(O)O)[C@@H](OP(=O)(O)O)[C@H]1O` [pAp] the “1H-13C HMQC methyl-TROSY NMR” value [1] was “HMQC spectra of the Xrn2 WT:pAp complex (black) and Xrn2 A5F:pAp complex (orange)” and the “1H-13C HMQC methyl-TROSY NMR chemical shift perturbation” value [2] was “The binding of pAp to Xrn2 resulted in substantial chemical shift perturbations”.

B1: 10-mer RNA (ssRNA)
RNA: GGAGGAGAGU
modifications: 5'-monophosphate; 3'-terminal 4-thiouridine
With B1 the binding signal (CtXrn2 deltaZnF) was about 3 fold Kd increase vs WT and the binding result (CtXrn2 1-875 (WT) [3]) was “binds”.

B2: ZIKV xrRNA (structured_RNA)
RNA: GGGAGUGUUGUAAGCACCAAUUUUAGUGUUGUCAGGCCGGCGAAAGUCGCCACAGUUUGGGGAAAGCUGUGCAGCCUGUAACCCCCCCACGAAAGUGGG
modifications: 5'-monophosphate
B2: binds (CtXrn2 1-875 (WT) [4]).

B3: 5-mer RNA (ssRNA)
RNA: GGAGU
modifications: 5'-monophosphate; 3'-terminal 4-thiouridine
For B3, the binding signal (CtXrn2 deltaZnF) was 1.5 fold Kd increase vs WT and the binding result (CtXrn2 1-875 (WT) [3]) was “binds”.

B4: pdA5 (ssDNA)
DNA: AAAAA
modifications: 5'-phosphate
B4: binds (CtXrn2 1-875 (WT) [5]).
